The text below walks through data of patent publication US20090291890A1 (published 2009).

One assay addresses T1, Mesyl-dFPR-ACC.
T1 sequence (peptide, N-terminal mesyl; D-Phe at position 1 (dF); C-terminal ACC fluorophore): FPR

Assay [1] addresses Factor X (Homo sapiens (Human)) (UniProt P00742).

Sequence of Factor X (Homo sapiens (Human)) (P00742 41-488 limits assumed): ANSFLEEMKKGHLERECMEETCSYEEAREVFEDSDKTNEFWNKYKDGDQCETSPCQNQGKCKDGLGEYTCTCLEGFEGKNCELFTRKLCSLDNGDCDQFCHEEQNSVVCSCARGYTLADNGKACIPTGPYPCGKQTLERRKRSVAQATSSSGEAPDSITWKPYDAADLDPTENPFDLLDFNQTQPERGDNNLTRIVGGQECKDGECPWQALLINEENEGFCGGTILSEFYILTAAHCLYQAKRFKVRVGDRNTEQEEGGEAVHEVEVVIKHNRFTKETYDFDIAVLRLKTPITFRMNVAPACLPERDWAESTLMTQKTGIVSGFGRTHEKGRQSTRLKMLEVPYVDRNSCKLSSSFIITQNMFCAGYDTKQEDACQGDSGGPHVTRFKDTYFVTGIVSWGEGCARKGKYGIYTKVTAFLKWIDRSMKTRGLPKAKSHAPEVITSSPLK

B1: H257S/Q286R/Q366V-FVIIa (enzyme)
chain: ANAFLEELRPGSLERECKEEQCSFEEAREIFKDAERTKLFWISYSDGDQCASSPCQNGGSCKDQLQSYICFCLPAFEGRNCETHKDDQLICVNENGGCEQYCSDHTGTKRSCRCHEGYSLLADGVSCTPTVEYPCGKIPILEKRNASKPQGRIVGGKVCPKGECPWQVLLLVNGAQLCGGTLINTIWVVSAAHCFDKIKNWRNLIAVLGEHDLSEHDGDEQSRRVAQVIIPSTYVPGTTNHDIALLRLHQPVVLTDSVVPLCLPERTFSERTLAFVRFSLVSGWGRLLDRGATALELMVLNVPRLMTQDCLQQSRKVGDSPNITEYMFCAGYSDGSKDSCKGDSGGPHATHYRGTWYLTGIVSWGVGCATVGHFGVYTRVSQYIEWLQKLMRSEPRPGVLLRAPFP
With B1, the Activity (µmol/sec/µmol), specific activity for mesyl-dFPR-ACC (µmol/sec/µmol) in the assay with Mesyl-dFPR-ACC came to 2. Besides, in assay [1], the kcat/KM (M^-1s^-1), TF-dependent assay was 7.1e+07 M⁻¹ s⁻¹ and the kcat/KM, TF-independent assay turned out to be 7.7 M⁻¹ s⁻¹.

B2: V158D/T239I/E296V/M298Q-FVIIa (enzyme)
chain: ANAFLEELRPGSLERECKEEQCSFEEAREIFKDAERTKLFWISYSDGDQCASSPCQNGGSCKDQLQSYICFCLPAFEGRNCETHKDDQLICVNENGGCEQYCSDHTGTKRSCRCHEGYSLLADGVSCTPTVEYPCGKIPILEKRNASKPQGRIVGGKDCPKGECPWQVLLLVNGAQLCGGTLINTIWVVSAAHCFDKIKNWRNLIAVLGEHDLSEHDGDEQSRRVAQVIIPSTYVPGTINHDIALLRLHQPVVLTDHVVPLCLPERTFSERTLAFVRFSLVSGWGQLLDRGATALVLQVLNVPRLMTQDCLQQSRKVGDSPNITEYMFCAGYSDGSKDSCKGDSGGPHATHYRGTWYLTGIVSWGQGCATVGHFGVYTRVSQYIEWLQKLMRSEPRPGVLLRAPFP
In the case of B2, in the assay with Mesyl-dFPR-ACC, the Activity (µmol/sec/µmol), specific activity for mesyl-dFPR-ACC (µmol/sec/µmol) was 2.24. Also, in assay [1], the kcat/KM (M^-1s^-1), TF-dependent assay worked out at 1.45e+08 M⁻¹ s⁻¹ and the kcat/KM, TF-independent assay was 216 M⁻¹ s⁻¹.

B3: S52A/S60A/Q286R/H373F-FVIIa (enzyme)
chain: ANAFLEELRPGSLERECKEEQCSFEEAREIFKDAERTKLFWISYSDGDQCAASPCQNGGACKDQLQSYICFCLPAFEGRNCETHKDDQLICVNENGGCEQYCSDHTGTKRSCRCHEGYSLLADGVSCTPTVEYPCGKIPILEKRNASKPQGRIVGGKVCPKGECPWQVLLLVNGAQLCGGTLINTIWVVSAAHCFDKIKNWRNLIAVLGEHDLSEHDGDEQSRRVAQVIIPSTYVPGTTNHDIALLRLHQPVVLTDHVVPLCLPERTFSERTLAFVRFSLVSGWGRLLDRGATALELMVLNVPRLMTQDCLQQSRKVGDSPNITEYMFCAGYSDGSKDSCKGDSGGPHATHYRGTWYLTGIVSWGQGCATVGFFGVYTRVSQYIEWLQKLMRSEPRPGVLLRAPFP
Take B3: in the assay with Mesyl-dFPR-ACC, the Activity (µmol/sec/µmol), specific activity for mesyl-dFPR-ACC (µmol/sec/µmol) came out at 3.14. Further, in assay [1], the kcat/KM (M^-1s^-1), TF-dependent assay worked out at 9.44e+07 M⁻¹ s⁻¹ and the kcat/KM, TF-independent assay came to 30.1 M⁻¹ s⁻¹.

B4: T239V/Q286R/M298Q/H373F-FVIIa (enzyme)
chain: ANAFLEELRPGSLERECKEEQCSFEEAREIFKDAERTKLFWISYSDGDQCASSPCQNGGSCKDQLQSYICFCLPAFEGRNCETHKDDQLICVNENGGCEQYCSDHTGTKRSCRCHEGYSLLADGVSCTPTVEYPCGKIPILEKRNASKPQGRIVGGKVCPKGECPWQVLLLVNGAQLCGGTLINTIWVVSAAHCFDKIKNWRNLIAVLGEHDLSEHDGDEQSRRVAQVIIPSTYVPGTVNHDIALLRLHQPVVLTDHVVPLCLPERTFSERTLAFVRFSLVSGWGRLLDRGATALELQVLNVPRLMTQDCLQQSRKVGDSPNITEYMFCAGYSDGSKDSCKGDSGGPHATHYRGTWYLTGIVSWGQGCATVGFFGVYTRVSQYIEWLQKLMRSEPRPGVLLRAPFP
Turning to B4, the Activity (µmol/sec/µmol), specific activity for mesyl-dFPR-ACC (µmol/sec/µmol) in the assay with Mesyl-dFPR-ACC is 3.07. For the same molecule, in assay [1], the kcat/KM (M^-1s^-1), TF-dependent assay worked out at 1.7e+08 M⁻¹ s⁻¹ and the kcat/KM, TF-independent assay is 40.7 M⁻¹ s⁻¹.

B5: S222A/T239V-FVIIa (enzyme)
chain: ANAFLEELRPGSLERECKEEQCSFEEAREIFKDAERTKLFWISYSDGDQCASSPCQNGGSCKDQLQSYICFCLPAFEGRNCETHKDDQLICVNENGGCEQYCSDHTGTKRSCRCHEGYSLLADGVSCTPTVEYPCGKIPILEKRNASKPQGRIVGGKVCPKGECPWQVLLLVNGAQLCGGTLINTIWVVSAAHCFDKIKNWRNLIAVLGEHDLSEHDGDEQARRVAQVIIPSTYVPGTVNHDIALLRLHQPVVLTDHVVPLCLPERTFSERTLAFVRFSLVSGWGQLLDRGATALELMVLNVPRLMTQDCLQQSRKVGDSPNITEYMFCAGYSDGSKDSCKGDSGGPHATHYRGTWYLTGIVSWGQGCATVGHFGVYTRVSQYIEWLQKLMRSEPRPGVLLRAPFP
With B5, the Activity (µmol/sec/µmol), specific activity for mesyl-dFPR-ACC (µmol/sec/µmol) with Mesyl-dFPR-ACC was found to be 1.91. In addition, in assay [1], the kcat/KM (M^-1s^-1), TF-dependent assay is 7.49e+07 M⁻¹ s⁻¹ and the kcat/KM, TF-independent assay was found to be 3 M⁻¹ s⁻¹.

B6: Q286R/H373F-FVIIa (enzyme)
chain: ANAFLEELRPGSLERECKEEQCSFEEAREIFKDAERTKLFWISYSDGDQCASSPCQNGGSCKDQLQSYICFCLPAFEGRNCETHKDDQLICVNENGGCEQYCSDHTGTKRSCRCHEGYSLLADGVSCTPTVEYPCGKIPILEKRNASKPQGRIVGGKVCPKGECPWQVLLLVNGAQLCGGTLINTIWVVSAAHCFDKIKNWRNLIAVLGEHDLSEHDGDEQSRRVAQVIIPSTYVPGTTNHDIALLRLHQPVVLTDHVVPLCLPERTFSERTLAFVRFSLVSGWGRLLDRGATALELMVLNVPRLMTQDCLQQSRKVGDSPNITEYMFCAGYSDGSKDSCKGDSGGPHATHYRGTWYLTGIVSWGQGCATVGFFGVYTRVSQYIEWLQKLMRSEPRPGVLLRAPFP
In the case of B6, the Activity (µmol/sec/µmol), specific activity for mesyl-dFPR-ACC (µmol/sec/µmol) in the assay with Mesyl-dFPR-ACC turned out to be 0.78. In assay [1], the kcat/KM (M^-1s^-1), TF-dependent assay came out at 9.01e+07 M⁻¹ s⁻¹ and the kcat/KM, TF-independent assay is 81.6 M⁻¹ s⁻¹.

B7: Q286R/M298Q/H373F-FVIIa (enzyme)
chain: ANAFLEELRPGSLERECKEEQCSFEEAREIFKDAERTKLFWISYSDGDQCASSPCQNGGSCKDQLQSYICFCLPAFEGRNCETHKDDQLICVNENGGCEQYCSDHTGTKRSCRCHEGYSLLADGVSCTPTVEYPCGKIPILEKRNASKPQGRIVGGKVCPKGECPWQVLLLVNGAQLCGGTLINTIWVVSAAHCFDKIKNWRNLIAVLGEHDLSEHDGDEQSRRVAQVIIPSTYVPGTTNHDIALLRLHQPVVLTDHVVPLCLPERTFSERTLAFVRFSLVSGWGRLLDRGATALELQVLNVPRLMTQDCLQQSRKVGDSPNITEYMFCAGYSDGSKDSCKGDSGGPHATHYRGTWYLTGIVSWGQGCATVGFFGVYTRVSQYIEWLQKLMRSEPRPGVLLRAPFP
For the molecule B7, the Activity (µmol/sec/µmol), specific activity for mesyl-dFPR-ACC (µmol/sec/µmol) with Mesyl-dFPR-ACC amounted to 4.59. Moreover, in assay [1], the kcat/KM (M^-1s^-1), TF-dependent assay stood at 1.36e+08 M⁻¹ s⁻¹ and the kcat/KM, TF-independent assay came out at 115 M⁻¹ s⁻¹.

B8: S222A/H257A/Q286R/Q366V-FVIIa (enzyme)
chain: ANAFLEELRPGSLERECKEEQCSFEEAREIFKDAERTKLFWISYSDGDQCASSPCQNGGSCKDQLQSYICFCLPAFEGRNCETHKDDQLICVNENGGCEQYCSDHTGTKRSCRCHEGYSLLADGVSCTPTVEYPCGKIPILEKRNASKPQGRIVGGKVCPKGECPWQVLLLVNGAQLCGGTLINTIWVVSAAHCFDKIKNWRNLIAVLGEHDLSEHDGDEQARRVAQVIIPSTYVPGTTNHDIALLRLHQPVVLTDAVVPLCLPERTFSERTLAFVRFSLVSGWGRLLDRGATALELMVLNVPRLMTQDCLQQSRKVGDSPNITEYMFCAGYSDGSKDSCKGDSGGPHATHYRGTWYLTGIVSWGVGCATVGHFGVYTRVSQYIEWLQKLMRSEPRPGVLLRAPFP
As for B8, in the assay with Mesyl-dFPR-ACC, the Activity (µmol/sec/µmol), specific activity for mesyl-dFPR-ACC (µmol/sec/µmol) turned out to be 2.43. For the same molecule, in assay [1], the kcat/KM (M^-1s^-1), TF-dependent assay was found to be 1e+08 M⁻¹ s⁻¹ and the kcat/KM, TF-independent assay is 12.5 M⁻¹ s⁻¹.

B9: M298Q/H373F-FVIIa (enzyme)
chain: ANAFLEELRPGSLERECKEEQCSFEEAREIFKDAERTKLFWISYSDGDQCASSPCQNGGSCKDQLQSYICFCLPAFEGRNCETHKDDQLICVNENGGCEQYCSDHTGTKRSCRCHEGYSLLADGVSCTPTVEYPCGKIPILEKRNASKPQGRIVGGKVCPKGECPWQVLLLVNGAQLCGGTLINTIWVVSAAHCFDKIKNWRNLIAVLGEHDLSEHDGDEQSRRVAQVIIPSTYVPGTTNHDIALLRLHQPVVLTDHVVPLCLPERTFSERTLAFVRFSLVSGWGQLLDRGATALELQVLNVPRLMTQDCLQQSRKVGDSPNITEYMFCAGYSDGSKDSCKGDSGGPHATHYRGTWYLTGIVSWGQGCATVGFFGVYTRVSQYIEWLQKLMRSEPRPGVLLRAPFP
B9 displayed an Activity (µmol/sec/µmol), specific activity for mesyl-dFPR-ACC (µmol/sec/µmol) with Mesyl-dFPR-ACC of 4. In addition, in assay [1], the kcat/KM (M^-1s^-1), TF-dependent assay came out at 7.21e+07 M⁻¹ s⁻¹ and the kcat/KM, TF-independent assay is 96.4 M⁻¹ s⁻¹.

B10: T239V/Q286R/H373F-FVIIa (enzyme)
chain: ANAFLEELRPGSLERECKEEQCSFEEAREIFKDAERTKLFWISYSDGDQCASSPCQNGGSCKDQLQSYICFCLPAFEGRNCETHKDDQLICVNENGGCEQYCSDHTGTKRSCRCHEGYSLLADGVSCTPTVEYPCGKIPILEKRNASKPQGRIVGGKVCPKGECPWQVLLLVNGAQLCGGTLINTIWVVSAAHCFDKIKNWRNLIAVLGEHDLSEHDGDEQSRRVAQVIIPSTYVPGTVNHDIALLRLHQPVVLTDHVVPLCLPERTFSERTLAFVRFSLVSGWGRLLDRGATALELMVLNVPRLMTQDCLQQSRKVGDSPNITEYMFCAGYSDGSKDSCKGDSGGPHATHYRGTWYLTGIVSWGQGCATVGFFGVYTRVSQYIEWLQKLMRSEPRPGVLLRAPFP
Molecule B10 displayed an Activity (µmol/sec/µmol), specific activity for mesyl-dFPR-ACC (µmol/sec/µmol) with Mesyl-dFPR-ACC of 1.53. In assay [1], the kcat/KM (M^-1s^-1), TF-dependent assay worked out at 1.06e+08 M⁻¹ s⁻¹ and the kcat/KM, TF-independent assay stood at 12.2 M⁻¹ s⁻¹.

B11: Q286R/M298Q/Q366N-FVIIa (enzyme)
chain: ANAFLEELRPGSLERECKEEQCSFEEAREIFKDAERTKLFWISYSDGDQCASSPCQNGGSCKDQLQSYICFCLPAFEGRNCETHKDDQLICVNENGGCEQYCSDHTGTKRSCRCHEGYSLLADGVSCTPTVEYPCGKIPILEKRNASKPQGRIVGGKVCPKGECPWQVLLLVNGAQLCGGTLINTIWVVSAAHCFDKIKNWRNLIAVLGEHDLSEHDGDEQSRRVAQVIIPSTYVPGTTNHDIALLRLHQPVVLTDHVVPLCLPERTFSERTLAFVRFSLVSGWGRLLDRGATALELQVLNVPRLMTQDCLQQSRKVGDSPNITEYMFCAGYSDGSKDSCKGDSGGPHATHYRGTWYLTGIVSWGNGCATVGHFGVYTRVSQYIEWLQKLMRSEPRPGVLLRAPFP
In the assay with Mesyl-dFPR-ACC, B11 showed an Activity (µmol/sec/µmol), specific activity for mesyl-dFPR-ACC (µmol/sec/µmol) of 2.35. In addition, in assay [1], the kcat/KM (M^-1s^-1), TF-dependent assay was determined as 1.17e+08 M⁻¹ s⁻¹ and the kcat/KM, TF-independent assay was determined as 65.9 M⁻¹ s⁻¹.
